One assay addresses HLA-A*01:01 (Homo sapiens, UniProt P04439, A114D/A174V/A182V/D101N/D185E/E176A/E190D/L180R/Q94H/R68K/S129P/T187R/V100A/V91M/W191G). Description: MHC binding assay, UV-ligand exchange with β2m ELISA, HLA-A*01:01. The following applies: peptide exchange yield. The text has this:
(§1) Candidate peptides for T cell based therapies according to the present invention were further tested for their MHC binding capacity (affinity). The individual peptide-MHC complexes were produced by UV-ligand exchange, where a UV-sensitive peptide is cleaved upon UV-irradiation, and exchanged with the peptide of interest as analyzed. Only peptide candidates that can effectively bind and stabilize the peptide-receptive MHC molecules prevent dissociation of the MHC complexes. To determine the yield of the exchange reaction, an ELISA was performed based on the detection of the light chain (β2m) of stabilized MHC complexes. The assay was performed as generally described in Rodenko et al. (Rodenko et al., 2006).
(§2) 96 well MAXISorp plates (NUNC) were coated over night with 2 ug/ml streptavidin in PBS at room temperature, washed 4× and blocked for 1 h at 37° C. in 2% BSA containing blocking buffer. Refolded HLA-A*02:01/MLA-001 monomers served as standards, covering the range of 15-500 ng/ml. Peptide-MHC monomers of the UV-exchange reaction were diluted 100-fold in blocking buffer. Samples were incubated for 1 h at 37° C., washed four times, incubated with 2 ug/ml HRP conjugated anti-β2m for 1 h at 37° C., washed again and detected with TMB solution that is stopped with […]. Absorption was measured at 450 nm. Candidate peptides that show a high exchange yield (preferably higher than 50%, most preferred higher than 75%) are generally preferred for a generation and production of antibodies or fragments thereof, and/or T cell receptors or fragments thereof, as they show sufficient avidity to the MHC molecules and prevent dissociation of the MHC complexes.
In the case of “11 (AAADHHSLY; listed as Homo sapiens) [compound 11]”, the Peptide exchange entry is recorded as ““+++” (>50 =+++)”.

Turning to “196 (FTDIDGQVY; listed as Homo sapiens) [compound 196]”, the Peptide exchange result is ““+++” (>50 =+++)”.

In the case of “192 (RSDPGGGGLAY; listed as Homo sapiens) [compound 192]”, the Peptide exchange result was ““+++” (>50 =+++)”.

Regarding “1 (LTEGHSGNYY; listed as Homo sapiens) [compound 1]”, the Peptide exchange result was ““++++” (>75% = ++++)”.

On to “3 (YINPAKLTPY; listed as Homo sapiens) [compound 3]”, for which the Peptide exchange result is recorded as ““++” (>20% = ++)”.

“15 (SVADIRNAY; listed as Homo sapiens) [compound 15]”: the Peptide exchange result is listed as ““++” (>20% = ++)”.

“189 (VTEEPQRLFY; listed as Homo sapiens) [compound 189]”: the Peptide exchange entry is given as ““++++” (>75% = ++++)”.

A further assay concerns the target HLA-A*03:01 (Homo sapiens, UniProt P04439). Nature of the assay: MHC binding assay, UV-ligand exchange with β2m ELISA, HLA-A*03:01. The following applies: peptide exchange yield.
From the text: as §1, §2
(In general: ELISA stands for enzyme-linked immunosorbent assay.)
In the case of “43 (KLMETSMGF; listed as Homo sapiens) [compound 43]”, the Peptide exchange entry is recorded as ““++” (>20% = ++)”.

For “30 (RTYGFVLTF; listed as Homo sapiens) [compound 30]”, the Peptide exchange result is ““++” (>20% = ++)”.

With “212 (LLWHWDTTQSLK; listed as Homo sapiens) [compound 212]”, the Peptide exchange entry is ““+” (>10% = +)”.

Regarding “217 (TTVPHVFSK; listed as Homo sapiens) [compound 217]”, the Peptide exchange entry is reported as ““++” (>20% = ++)”.

For the substance “37 (KAKKPAGAAK; listed as Homo sapiens) [compound 37]”, the Peptide exchange result is given as ““+++” (>50 = +++)”.

As for “218 (RVLTGVFTK; listed as Homo sapiens) [compound 218]”, the Peptide exchange result is recorded as ““++” (>20% = ++)”.

On to “35 (ATKSPAKPK; listed as Homo sapiens) [compound 35]”, for which the Peptide exchange entry is given as ““+++” (>50 = +++)”.

Regarding “214 (ATGAATPKK; listed as Homo sapiens) [compound 214]”, the Peptide exchange entry was ““+++” (>50 = +++)”.

For the substance “42 (SVSSSTHFTR; listed as Homo sapiens) [compound 42]”, the Peptide exchange entry is given as ““++” (>20% = ++)”.

As for “45 (VVFPFPVNK; listed as Homo sapiens) [compound 45]”, the Peptide exchange result is ““+++” (>50 = +++)”.

For the substance “36 (KAKAAAKPK; listed as Homo sapiens) [compound 36]”, the Peptide exchange entry is ““++” (>20% = ++)”.

With “211 (ATYNKQPMYR; listed as Homo sapiens) [compound 211]”, the Peptide exchange entry is on record as ““+++” (>50 = +++)”.

“46 (RVFPSPMRI; listed as Homo sapiens) [compound 46]”: the Peptide exchange entry is ““++” (>20% = ++)”.

For “49 (GLLEEALFY; listed as Homo sapiens) [compound 49]”, the Peptide exchange entry is listed as ““++” (>20% = ++)”.

As for “34 (SVYSETSNMDK; listed as Homo sapiens) [compound 34]”, the Peptide exchange entry is recorded as ““+++” (>50 = +++)”.

As to “208 (KLNPQQAPLY; listed as Homo sapiens) [compound 208]”, the Peptide exchange entry is listed as ““++” (>20% = ++)”.

On to “41 (SVAHLLSKY; listed as Homo sapiens) [compound 41]”, for which the Peptide exchange entry was ““++” (>20% = ++)”.

For “40 (RSKEYIRKK; listed as Homo sapiens) [compound 40]”, the Peptide exchange result is given as ““+” (>10% = +)”.

Turning to “48 (RIKPPGPTAVPK; listed as Homo sapiens) [compound 48]”, the Peptide exchange result is ““+++” (>50 = +++)”.

Regarding “32 (KTSNIVKIK; listed as Homo sapiens) [compound 32]”, the Peptide exchange result is listed as ““++” (>20% = ++)”.

Consider “209 (KTLPAMLGTGK; listed as Homo sapiens) [compound 209]”, for which the Peptide exchange result is ““++” (>20% = ++)”.

Regarding “220 (SISNLVFTY; listed as Homo sapiens) [compound 220]”, the Peptide exchange result is on record as ““++” (>20% = ++)”.

On to “219 (HSYSSPSTK; listed as Homo sapiens) [compound 219]”, for which the Peptide exchange result is reported as ““+++” (>50 = +++)”.

The record behind these values is patent US11135246B2, “Peptides and combination of peptides for use in immunotherapy against leukemias and other cancers” (Immatics Biotechnologies GmbH, priority 2017, dated 2021).
